Patent publication US20240041976A1, “COMPOSITION AND USE” (priority 2020, published 2024)

Legend:
[1] = tested on: S. aureus LMG3307; test: AAMP assay (MIC), single components and formulation mixture; assay type: cell-based, Staphylococcus aureus; conditions: LMG3307
Outline: (§1)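 Broth microdilution MIC per the AAMP method. The three-component mixture (100 μg PenG, 50 μg GarKS, 2.5 μg MP1 in one well) was compared with each antimicrobial alone on the same plate; synergy was defined by fractional inhibition concentration (FIC).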

[2] = tested on: S. aureus LMG3255; test: as above; assay type: cell-based, Staphylococcus aureus; conditions: LMG3255
Outline: as §1

[3] = tested on: S. aureus LMG3263; test: as above; assay type: cell-based, Staphylococcus aureus; conditions: LMG3263
Outline: as §1

[4] = tested on: S. aureus LMG3264; test: as above; assay type: cell-based, Staphylococcus aureus; conditions: LMG3264
Outline: as §1

[5] = tested on: S. aureus LMG3242; test: as above; assay type: cell-based, Staphylococcus aureus; conditions: LMG3242
Outline: as §1

[6] = tested on: S. haemolyticus 4068; test: microbe, parasite or virus in culture; conditions: 4068; for MIC: individual component
Description: (§2) Growth inhibition assays were performed in 96-well microtiter plates as described previously (Chi and Holo, 2018, supra). Briefly, 135 μl of TSB were dispensed in each well of a microtiter plate (according to the number of bacterial strains tested) except in the wells of the first row. The antimicrobials were diluted in TSB to working concentrations in a final volume of 285 μl and dispensed in the wells of the first row. The working concentrations were 100 μg/μl for garvicin KS, 10 μg/μl for micrococcin P1 and 1 mg/ml for penicillin G. From the first row, 150 μl of the antimicrobials were then serially diluted (two-fold dilutions) in a sequential fashion until the last row of the plate. Finally, 15 μl of a fresh O/N culture of each strain were added in the appropriate wells to reach a final volume of 150 μl in each well. The plates were then incubated at 37° C. for 24 h. The growth inhibition was expressed as minimum inhibitory concentration (MIC50), which refers to the minimum concentration of the antimicrobial needed to reduce at least 50% of the microbial growth compared to the untreated control. The MIC50 was assessed by optical density readings at 600 nm (O.D.600).
(§3) Synergistic interactions between antimicrobials were determined using the fractional inhibition concentration (FIC). The FIC values were calculated as follows: the sum of the FIC =FICa+FICb+FICc, where the FICa means MIC of A in combination/MIC of A alone, FICb means MIC of B in combination/MIC of B, and FICc means MIC of C in combination/MIC of C alone. Effects were considered as synergistic if FIC was ≤0.5 for two components mixture and ≤0.75 for three components mixture.
(§4) Bacteriocins and antimicrobial assays. […] These bacteriocins were all solubilized in 0.1% (vol/vol) trifluoracetic acid (TFA; Sigma-Aldrich). […] Cell growth inhibition assays and antimicrobial synergy determination was performed in line with Example 1.
(§5) To investigate whether there was synergy between the three bacteriocins (K1-EJ, GarKS and MP1), a checkboard antimicrobial assay was performed. The selected strains were treated for 5, 24 and 48 h with a range of concentrations of K1-EJ, GarKS and MP1 alone or in different combinations.

[7] = tested on: S. haemolyticus 4072; test: microbe, parasite or virus in culture; conditions: 4072; for MIC: individual component
Description: as §2, §3, §4, §5

[8] = tested on: S. haemolyticus 4069; test: microbe, parasite or virus in culture; conditions: 4069; for MIC: individual component
Description: as §2, §3, §4, §5

[9] = tested on: S. haemolyticus 4073; test: microbe, parasite or virus in culture; conditions: 4073; for MIC: individual component
Description: as §2, §3, §4, §5

[10] = tested on: S. haemolyticus 4070; test: microbe, parasite or virus in culture; conditions: 4070; for MIC: individual component
Description: as §2, §3, §4, §5

B1: Garvicin KS: three-peptide leaderless bacteriocin (GarA, GarB, GarC; SEQ ID NO:6-8), peptides synthesized (peptide, listed as Lactococcus garvieae)
chain 1: MGAIIKAGAKIVGKGVLGGGASWLGWNVGEKIWK
chain 2: MGAIIKAGAKIIGKGLLGGAAGGATYGGLKKIFG
chain 3: MGAIIKAGAKIVGKGALTGGGVWLAEKLFGGK
For B1, the “MIC, single component” value [1] was 32 µg/mL, the “MIC, single component” value [2] was 32 µg/mL and the “MIC, single component” value [3] was 16 µg/mL. The “MIC, single component” value [4] was 32 µg/mL, the “MIC, single component” value [5] was 32 µg/mL and the “MIC of the component in combination” value ([6]; 5 h, GarKS + MP1) was 0.2 µg/mL. The “MIC of the component in combination” value ([6]; 5 h, K1-EJ + GarKS) was 0.83 µg/mL, the “MIC of the component in combination” value ([6]; 5 h, K1-EJ + GarKS + MP1) was 0.32 µg/mL and the MIC ([6]; 5 h) was 6.5 µg/mL. For the same molecule, the “MIC of the component in combination” value ([6]; 24 h, GarKS + MP1) was 0.32 µg/mL, the “MIC of the component in combination” value ([6]; 24 h, K1-EJ + GarKS) was 3.1 µg/mL and the “MIC of the component in combination” value ([6]; 24 h, K1-EJ + GarKS + MP1) was 0.78 µg/mL. For the same molecule, the MIC ([6]; 24 h) was 24 µg/mL, the “MIC of the component in combination” value ([6]; 48 h, GarKS + MP1) was 0.68 µg/mL and the “MIC of the component in combination” value ([6]; 48 h, K1-EJ + GarKS) was 6 µg/mL. For the same molecule, the “MIC of the component in combination” value ([6]; 48 h, K1-EJ + GarKS + MP1) was 2.8 µg/mL, the MIC ([6]; 48 h) was 25 µg/mL and the “MIC of the component in combination” value ([7]; 5 h, GarKS + MP1) was 0.73 µg/mL. For the same molecule, the “MIC of the component in combination” value ([7]; 5 h, K1-EJ + GarKS) was 1.5 µg/mL, the “MIC of the component in combination” value ([7]; 5 h, K1-EJ + GarKS + MP1) was 0.68 µg/mL and the MIC ([7]; 5 h) was 23.6 µg/mL. For the same molecule, the “MIC of the component in combination” value ([7]; 24 h, GarKS + MP1) was 1.6 µg/mL, the “MIC of the component in combination” value ([7]; 24 h, K1-EJ + GarKS) was 12 µg/mL and the “MIC of the component in combination” value ([7]; 24 h, K1-EJ + GarKS + MP1) was 1.6 µg/mL. For the same molecule, the MIC ([7]; 24 h) was 49 µg/mL, the “MIC of the component in combination” value ([7]; 48 h, GarKS + MP1) was 3.1 µg/mL and the “MIC of the component in combination” value ([7]; 48 h, K1-EJ + GarKS) was 13 µg/mL. The “MIC of the component in combination” value ([7]; 48 h, K1-EJ + GarKS + MP1) was 5.8 µg/mL, the MIC ([7]; 48 h) was 52 µg/mL and the “MIC of the component in combination” value ([8]; 5 h, GarKS + MP1) was 1.6 µg/mL. For the same molecule, the “MIC of the component in combination” value ([8]; 5 h, K1-EJ + GarKS) was 1.4 µg/mL, the “MIC of the component in combination” value ([8]; 5 h, K1-EJ + GarKS + MP1) was 0.68 µg/mL and the MIC ([8]; 5 h) was 3.3 µg/mL. The “MIC of the component in combination” value ([8]; 24 h, GarKS + MP1) was 25 µg/mL, the “MIC of the component in combination” value ([8]; 24 h, K1-EJ + GarKS) was 6 µg/mL and the “MIC of the component in combination” value ([8]; 24 h, K1-EJ + GarKS + MP1) was 3.3 µg/mL. For the same molecule, the MIC ([8]; 24 h) was 13 µg/mL, the “MIC of the component in combination” value ([8]; 48 h, GarKS + MP1) was 50 µg/mL and the “MIC of the component in combination” value ([8]; 48 h, K1-EJ + GarKS) was 6.5 µg/mL. The “MIC of the component in combination” value ([8]; 48 h, K1-EJ + GarKS + MP1) was 5.8 µg/mL, the MIC ([8]; 48 h) was 26 µg/mL and the “MIC of the component in combination” value ([9]; 5 h, GarKS + MP1) was 0.2 µg/mL. The “MIC of the component in combination” value ([9]; 5 h, K1-EJ + GarKS) was 1.7 µg/mL, the “MIC of the component in combination” value ([9]; 5 h, K1-EJ + GarKS + MP1) was 0.33 µg/mL and the MIC ([9]; 5 h) was 12.5 µg/mL. For the same molecule, the “MIC of the component in combination” value ([9]; 24 h, GarKS + MP1) was 0.73 µg/mL, the “MIC of the component in combination” value ([9]; 24 h, K1-EJ + GarKS) was 6.3 µg/mL and the “MIC of the component in combination” value ([9]; 24 h, K1-EJ + GarKS + MP1) was 0.78 µg/mL. The MIC ([9]; 24 h) was 51 µg/mL, the “MIC of the component in combination” value ([9]; 48 h, GarKS + MP1) was 0.83 µg/mL and the “MIC of the component in combination” value ([9]; 48 h, K1-EJ + GarKS) was 12 µg/mL. For the same molecule, the “MIC of the component in combination” value ([9]; 48 h, K1-EJ + GarKS + MP1) was 1.6 µg/mL, the MIC ([9]; 48 h) was 51 µg/mL and the “MIC of the component in combination” value ([10]; 5 h, GarKS + MP1) was 0.2 µg/mL. For the same molecule, the “MIC of the component in combination” value ([10]; 5 h, K1-EJ + GarKS) was 0.72 µg/mL, the “MIC of the component in combination” value ([10]; 5 h, K1-EJ + GarKS + MP1) was 0.32 µg/mL and the MIC ([10]; 5 h) was 12 µg/mL. The “MIC of the component in combination” value ([10]; 24 h, GarKS + MP1) was 3.3 µg/mL, the “MIC of the component in combination” value ([10]; 24 h, K1-EJ + GarKS) was 3.3 µg/mL and the “MIC of the component in combination” value ([10]; 24 h, K1-EJ + GarKS + MP1) was 2.8 µg/mL. The MIC ([10]; 24 h) was 48 µg/mL, the “MIC of the component in combination” value ([10]; 48 h, GarKS + MP1) was 6.3 µg/mL and the “MIC of the component in combination” value ([10]; 48 h, K1-EJ + GarKS) was 6.3 µg/mL. For the same molecule, the “MIC of the component in combination” value ([10]; 48 h, K1-EJ + GarKS + MP1) was 5.8 µg/mL and the MIC ([10]; 48 h) was 51 µg/mL.
